From paper PMC11039987 come the findings set out here.

What all share (experiment): fluorescence anisotropy
Series [1] addresses T1, RecBCD (prokaryote (species  in the …, UniProt P08394;P07648;P04993 1-1180;1-1122;1-608)).
Series [2] addresses T1, RecBCD. The source holds these as a separate data set.
For series [3], the target named is T1, RecBCD. The source holds these as a separate data set.

Where two headings read alike, the source gives them in different places.

T1 sequence (P08394 whole entry, chain 1 of 3): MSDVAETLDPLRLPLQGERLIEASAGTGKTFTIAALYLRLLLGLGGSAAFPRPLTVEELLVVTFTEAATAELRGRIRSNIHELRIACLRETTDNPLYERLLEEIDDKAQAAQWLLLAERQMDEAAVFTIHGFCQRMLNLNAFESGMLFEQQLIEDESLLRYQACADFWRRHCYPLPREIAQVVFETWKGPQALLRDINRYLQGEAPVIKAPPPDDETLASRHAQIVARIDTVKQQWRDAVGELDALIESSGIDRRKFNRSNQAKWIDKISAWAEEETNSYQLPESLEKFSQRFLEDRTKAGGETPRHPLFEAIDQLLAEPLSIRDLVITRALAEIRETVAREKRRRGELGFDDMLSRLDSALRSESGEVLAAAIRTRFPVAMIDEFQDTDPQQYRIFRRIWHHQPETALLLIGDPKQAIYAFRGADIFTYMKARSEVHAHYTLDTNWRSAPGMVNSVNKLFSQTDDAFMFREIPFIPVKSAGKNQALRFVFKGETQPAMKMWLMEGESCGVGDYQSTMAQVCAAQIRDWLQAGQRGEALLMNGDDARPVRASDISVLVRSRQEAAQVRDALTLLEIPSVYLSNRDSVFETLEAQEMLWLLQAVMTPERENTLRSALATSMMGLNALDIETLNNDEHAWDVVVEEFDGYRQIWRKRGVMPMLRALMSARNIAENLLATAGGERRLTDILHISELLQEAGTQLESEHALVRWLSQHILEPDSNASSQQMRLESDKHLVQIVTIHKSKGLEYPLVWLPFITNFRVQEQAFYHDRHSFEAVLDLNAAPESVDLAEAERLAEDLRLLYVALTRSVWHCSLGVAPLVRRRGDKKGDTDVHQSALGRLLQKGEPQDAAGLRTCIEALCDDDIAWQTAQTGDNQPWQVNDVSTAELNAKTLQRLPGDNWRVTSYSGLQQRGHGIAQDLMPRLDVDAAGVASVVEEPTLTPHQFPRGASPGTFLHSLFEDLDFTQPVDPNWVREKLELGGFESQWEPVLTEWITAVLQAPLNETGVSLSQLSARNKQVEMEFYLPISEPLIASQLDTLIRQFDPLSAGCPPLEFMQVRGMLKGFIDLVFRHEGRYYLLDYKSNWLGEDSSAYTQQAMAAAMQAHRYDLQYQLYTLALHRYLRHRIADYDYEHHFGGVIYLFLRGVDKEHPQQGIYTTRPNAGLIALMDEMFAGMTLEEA
T1 sequence (P07648 whole entry, chain 2 of 3): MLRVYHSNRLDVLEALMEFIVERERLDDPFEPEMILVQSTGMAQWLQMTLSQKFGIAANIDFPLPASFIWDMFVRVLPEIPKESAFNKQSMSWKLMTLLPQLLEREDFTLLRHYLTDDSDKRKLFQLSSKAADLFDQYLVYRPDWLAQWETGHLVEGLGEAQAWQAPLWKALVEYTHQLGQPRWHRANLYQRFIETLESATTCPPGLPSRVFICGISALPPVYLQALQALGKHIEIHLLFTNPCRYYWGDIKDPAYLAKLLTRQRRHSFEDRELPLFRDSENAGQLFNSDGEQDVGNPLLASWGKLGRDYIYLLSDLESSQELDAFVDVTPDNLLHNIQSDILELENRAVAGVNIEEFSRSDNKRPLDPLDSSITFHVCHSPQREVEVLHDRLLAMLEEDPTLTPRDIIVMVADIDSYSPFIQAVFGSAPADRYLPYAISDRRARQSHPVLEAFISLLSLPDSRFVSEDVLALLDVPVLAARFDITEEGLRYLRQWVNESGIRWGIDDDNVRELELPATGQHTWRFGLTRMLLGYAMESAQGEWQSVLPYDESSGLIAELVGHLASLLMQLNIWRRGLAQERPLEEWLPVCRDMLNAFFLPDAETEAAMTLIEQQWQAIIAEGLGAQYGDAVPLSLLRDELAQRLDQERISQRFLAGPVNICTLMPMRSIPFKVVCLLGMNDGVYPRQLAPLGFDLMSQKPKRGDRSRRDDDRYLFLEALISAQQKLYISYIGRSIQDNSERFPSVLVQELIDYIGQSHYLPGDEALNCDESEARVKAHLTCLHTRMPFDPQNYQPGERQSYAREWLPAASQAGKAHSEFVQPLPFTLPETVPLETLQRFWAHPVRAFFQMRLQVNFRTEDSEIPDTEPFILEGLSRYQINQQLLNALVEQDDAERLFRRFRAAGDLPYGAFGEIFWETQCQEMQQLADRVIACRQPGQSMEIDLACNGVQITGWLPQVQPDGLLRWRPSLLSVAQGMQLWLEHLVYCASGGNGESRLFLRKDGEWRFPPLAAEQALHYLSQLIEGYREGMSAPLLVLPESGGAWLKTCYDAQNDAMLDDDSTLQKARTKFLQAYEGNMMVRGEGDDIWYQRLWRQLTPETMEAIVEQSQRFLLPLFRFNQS
T1 sequence (P04993 whole entry, chain 3 of 3): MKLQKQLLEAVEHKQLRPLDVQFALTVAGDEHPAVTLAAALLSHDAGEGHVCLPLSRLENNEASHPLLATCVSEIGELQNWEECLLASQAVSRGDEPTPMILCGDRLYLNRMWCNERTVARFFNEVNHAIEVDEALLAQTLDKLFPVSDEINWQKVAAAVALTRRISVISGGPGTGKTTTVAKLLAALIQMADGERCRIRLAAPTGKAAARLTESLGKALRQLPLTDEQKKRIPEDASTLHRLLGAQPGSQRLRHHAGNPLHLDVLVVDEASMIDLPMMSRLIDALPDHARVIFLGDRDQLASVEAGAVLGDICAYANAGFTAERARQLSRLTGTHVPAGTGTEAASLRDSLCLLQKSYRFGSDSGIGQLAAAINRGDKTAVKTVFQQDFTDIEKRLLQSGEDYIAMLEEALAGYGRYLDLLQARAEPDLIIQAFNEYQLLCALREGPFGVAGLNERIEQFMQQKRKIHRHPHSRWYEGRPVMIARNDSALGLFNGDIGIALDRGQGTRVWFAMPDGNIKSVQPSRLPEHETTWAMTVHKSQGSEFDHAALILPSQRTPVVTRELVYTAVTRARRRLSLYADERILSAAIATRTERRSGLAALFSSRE

On to GATGTGACTCGTTACCTGAGTTTTTACTCAGGTAACGAGTCACATC (structured_DNA) [hpDNA-F], for which the binding result in the series with RecBCD [1] is “binds”. For AGAGAGAGAGAGAGAGAGAGAGAG (ssDNA) [ssDNA-F], the binding result in the series with RecBCD [2] was “binds”.

B1: 3ohDNA-F (structured_DNA)
DNA: CATGTGACTCGTTACCTGAGTTTTTACTCAGGTAACGAGTCACATGATATATATAT
With B1, the Kd with RecBCD [3] turned out to be 166 ± 41 nM.
